From article PMC6868236

Molecular target: Tra1 (S. pombe) (UniProt Q9HFE8)
Assay: Spt7-TAP tandem affinity purification of SAGA, LC-MS/MS label-free quantification (LFQ)
Details: parent: 1.0

Chain of UniProt Q9HFE8 (Q9HFE8 whole entry): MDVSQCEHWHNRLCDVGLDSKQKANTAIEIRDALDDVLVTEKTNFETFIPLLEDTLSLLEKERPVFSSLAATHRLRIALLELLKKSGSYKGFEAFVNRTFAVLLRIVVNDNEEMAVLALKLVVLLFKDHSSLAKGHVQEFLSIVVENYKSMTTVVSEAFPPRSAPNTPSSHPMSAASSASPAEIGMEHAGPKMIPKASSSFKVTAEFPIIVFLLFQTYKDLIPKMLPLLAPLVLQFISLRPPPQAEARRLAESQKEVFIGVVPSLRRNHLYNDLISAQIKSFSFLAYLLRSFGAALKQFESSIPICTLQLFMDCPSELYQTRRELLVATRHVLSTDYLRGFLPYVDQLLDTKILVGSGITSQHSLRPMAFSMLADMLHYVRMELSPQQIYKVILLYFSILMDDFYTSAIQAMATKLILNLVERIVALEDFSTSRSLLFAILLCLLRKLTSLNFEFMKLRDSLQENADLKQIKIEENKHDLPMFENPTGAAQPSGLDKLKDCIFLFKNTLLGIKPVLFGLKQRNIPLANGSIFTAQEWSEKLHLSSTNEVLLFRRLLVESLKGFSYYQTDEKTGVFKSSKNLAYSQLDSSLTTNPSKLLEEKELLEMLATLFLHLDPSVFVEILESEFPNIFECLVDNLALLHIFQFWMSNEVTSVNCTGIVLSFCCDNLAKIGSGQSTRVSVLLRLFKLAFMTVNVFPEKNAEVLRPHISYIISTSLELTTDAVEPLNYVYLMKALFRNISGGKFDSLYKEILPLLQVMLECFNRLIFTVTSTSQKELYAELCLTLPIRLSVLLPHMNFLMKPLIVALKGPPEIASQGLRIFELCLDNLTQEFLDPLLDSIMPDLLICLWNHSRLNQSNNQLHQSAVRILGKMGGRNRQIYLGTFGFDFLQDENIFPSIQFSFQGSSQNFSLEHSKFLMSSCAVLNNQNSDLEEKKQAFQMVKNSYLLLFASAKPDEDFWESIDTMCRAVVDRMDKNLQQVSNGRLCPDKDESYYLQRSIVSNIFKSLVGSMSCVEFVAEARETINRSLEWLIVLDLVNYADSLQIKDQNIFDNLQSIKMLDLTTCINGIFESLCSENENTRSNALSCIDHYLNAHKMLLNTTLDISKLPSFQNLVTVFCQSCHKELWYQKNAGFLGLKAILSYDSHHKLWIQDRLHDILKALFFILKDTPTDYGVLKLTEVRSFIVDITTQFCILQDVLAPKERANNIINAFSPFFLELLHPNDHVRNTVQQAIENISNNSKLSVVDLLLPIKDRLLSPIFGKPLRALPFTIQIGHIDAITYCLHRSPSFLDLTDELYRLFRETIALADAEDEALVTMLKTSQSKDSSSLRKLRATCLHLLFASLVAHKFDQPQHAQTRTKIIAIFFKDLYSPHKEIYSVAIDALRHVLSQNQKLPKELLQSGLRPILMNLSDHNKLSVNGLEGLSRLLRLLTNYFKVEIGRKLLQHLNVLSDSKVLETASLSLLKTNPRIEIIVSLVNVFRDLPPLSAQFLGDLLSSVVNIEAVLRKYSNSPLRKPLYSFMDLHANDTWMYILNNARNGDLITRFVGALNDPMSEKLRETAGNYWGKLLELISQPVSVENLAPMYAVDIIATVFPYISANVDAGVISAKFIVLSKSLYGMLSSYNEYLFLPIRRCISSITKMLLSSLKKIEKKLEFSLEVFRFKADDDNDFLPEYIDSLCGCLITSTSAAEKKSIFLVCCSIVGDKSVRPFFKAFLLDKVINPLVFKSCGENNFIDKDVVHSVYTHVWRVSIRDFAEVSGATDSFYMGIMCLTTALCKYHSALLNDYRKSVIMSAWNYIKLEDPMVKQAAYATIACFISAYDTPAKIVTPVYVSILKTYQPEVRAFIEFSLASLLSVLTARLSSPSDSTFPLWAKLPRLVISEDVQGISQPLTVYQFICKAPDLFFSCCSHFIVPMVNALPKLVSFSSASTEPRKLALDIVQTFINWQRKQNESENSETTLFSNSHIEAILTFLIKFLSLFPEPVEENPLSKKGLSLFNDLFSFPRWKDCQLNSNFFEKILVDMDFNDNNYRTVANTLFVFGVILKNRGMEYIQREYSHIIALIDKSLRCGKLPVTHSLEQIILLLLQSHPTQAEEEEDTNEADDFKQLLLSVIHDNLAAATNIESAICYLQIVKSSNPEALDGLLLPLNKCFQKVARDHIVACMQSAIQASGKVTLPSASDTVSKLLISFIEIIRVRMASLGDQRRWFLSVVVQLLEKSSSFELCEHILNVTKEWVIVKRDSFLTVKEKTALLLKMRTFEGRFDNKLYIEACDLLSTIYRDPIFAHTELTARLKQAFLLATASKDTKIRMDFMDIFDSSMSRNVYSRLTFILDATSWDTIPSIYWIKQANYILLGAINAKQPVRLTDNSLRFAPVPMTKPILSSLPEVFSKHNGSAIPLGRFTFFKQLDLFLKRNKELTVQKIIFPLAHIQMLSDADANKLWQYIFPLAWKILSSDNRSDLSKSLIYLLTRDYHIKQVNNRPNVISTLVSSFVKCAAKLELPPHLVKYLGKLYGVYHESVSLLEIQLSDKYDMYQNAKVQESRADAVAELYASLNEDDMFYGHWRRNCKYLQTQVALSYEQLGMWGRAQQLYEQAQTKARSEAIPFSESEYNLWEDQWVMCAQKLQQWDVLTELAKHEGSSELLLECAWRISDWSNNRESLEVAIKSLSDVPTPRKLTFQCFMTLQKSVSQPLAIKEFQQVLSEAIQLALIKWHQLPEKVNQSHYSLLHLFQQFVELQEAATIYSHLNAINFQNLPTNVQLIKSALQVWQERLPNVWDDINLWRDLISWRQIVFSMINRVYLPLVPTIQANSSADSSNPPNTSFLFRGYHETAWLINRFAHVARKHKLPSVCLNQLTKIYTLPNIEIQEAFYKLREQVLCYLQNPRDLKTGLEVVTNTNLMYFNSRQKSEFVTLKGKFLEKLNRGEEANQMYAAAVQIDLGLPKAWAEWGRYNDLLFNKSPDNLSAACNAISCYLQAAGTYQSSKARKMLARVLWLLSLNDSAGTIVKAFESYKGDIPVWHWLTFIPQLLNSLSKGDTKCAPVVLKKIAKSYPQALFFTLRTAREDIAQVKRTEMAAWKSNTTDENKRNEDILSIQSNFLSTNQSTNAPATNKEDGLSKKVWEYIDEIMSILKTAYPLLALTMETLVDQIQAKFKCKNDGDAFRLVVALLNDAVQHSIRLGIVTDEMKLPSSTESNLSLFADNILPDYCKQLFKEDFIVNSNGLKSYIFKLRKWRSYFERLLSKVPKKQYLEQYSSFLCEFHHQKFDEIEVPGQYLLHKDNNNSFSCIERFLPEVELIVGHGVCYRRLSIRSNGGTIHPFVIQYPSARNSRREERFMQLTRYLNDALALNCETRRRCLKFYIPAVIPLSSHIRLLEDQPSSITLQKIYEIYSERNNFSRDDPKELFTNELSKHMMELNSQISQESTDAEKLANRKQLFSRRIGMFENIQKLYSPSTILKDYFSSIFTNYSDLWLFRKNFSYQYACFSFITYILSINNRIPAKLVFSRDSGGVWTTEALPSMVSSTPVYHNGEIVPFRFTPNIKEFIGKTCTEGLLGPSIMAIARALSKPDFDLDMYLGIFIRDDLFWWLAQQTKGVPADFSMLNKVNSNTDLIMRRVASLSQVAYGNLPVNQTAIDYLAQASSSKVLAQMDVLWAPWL

Spt20 (S. pombe) (from UniProt O14174) RRKR>AAAA (HIT sequence … changed to …)
ratio to parent: 0.51

Spt20 (S. pombe) (from UniProt O14174) FIEN>AAAA (HIT sequence … changed to …)
ratio to parent: 0.02
